Test [1] has as its target caspase 7 lacking the N-terminal 53 amino acid prodomain (caspase 7^53) (human) (UniProt P55210). The test can be described thus: cell-based or functional assay.
Test [2] deals with C. elegans caspase CED-3 (C. elegans) (UniProt P42573). In words: cell-based or functional assay.
UniProt P42573, sequence (P42573 whole entry): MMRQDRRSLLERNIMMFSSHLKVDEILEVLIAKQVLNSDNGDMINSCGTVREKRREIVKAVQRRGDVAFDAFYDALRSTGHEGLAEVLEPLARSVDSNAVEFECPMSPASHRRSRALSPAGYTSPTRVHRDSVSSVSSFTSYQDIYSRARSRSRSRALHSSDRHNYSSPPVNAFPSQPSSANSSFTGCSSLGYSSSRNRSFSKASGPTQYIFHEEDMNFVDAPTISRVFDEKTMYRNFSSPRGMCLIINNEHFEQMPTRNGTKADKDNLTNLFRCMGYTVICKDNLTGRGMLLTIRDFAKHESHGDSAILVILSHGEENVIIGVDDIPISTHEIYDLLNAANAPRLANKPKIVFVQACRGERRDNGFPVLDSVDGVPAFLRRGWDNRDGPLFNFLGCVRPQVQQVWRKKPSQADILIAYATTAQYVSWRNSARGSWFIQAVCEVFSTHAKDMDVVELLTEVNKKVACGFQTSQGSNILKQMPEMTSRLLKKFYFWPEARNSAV

UniProt P55210, sequence (P55210 54-303 limits assumed): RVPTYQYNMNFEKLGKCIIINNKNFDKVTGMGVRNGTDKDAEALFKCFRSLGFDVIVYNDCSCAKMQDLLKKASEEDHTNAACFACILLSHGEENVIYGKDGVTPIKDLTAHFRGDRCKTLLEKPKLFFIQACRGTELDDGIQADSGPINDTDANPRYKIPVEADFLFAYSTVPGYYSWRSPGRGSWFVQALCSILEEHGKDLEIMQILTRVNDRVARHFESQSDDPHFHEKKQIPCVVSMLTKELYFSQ

“baculovirus p35 (from UniProt P08160 1-299)”: the beta-gal activity (ONPG assay) of the caspase-dependent CLBDG6 LexA/lacZ reporter in yeast (fold inhibition) in test [1] and in test [2] was 5 throughout. For “mouse IAP MIHA (from UniProt Q60989 1-496)”, the beta-gal activity (ONPG assay) of the caspase-dependent CLBDG6 LexA/lacZ reporter in yeast (fold inhibition) in test [1] amounted to 2.

For the origin of these results see patent US6884870.
